Results on three molecules are retold here after patent publication US20220406376A1 (MacroGenics, published 2022).

The target in assay [1] is T1, 5T4 on the surface of target cells (JIMT-1, SKOV-3) (UniProt Q13641 32-420, limits assumed).
T1 construct: whole, on cells
T1 sequence (looked up): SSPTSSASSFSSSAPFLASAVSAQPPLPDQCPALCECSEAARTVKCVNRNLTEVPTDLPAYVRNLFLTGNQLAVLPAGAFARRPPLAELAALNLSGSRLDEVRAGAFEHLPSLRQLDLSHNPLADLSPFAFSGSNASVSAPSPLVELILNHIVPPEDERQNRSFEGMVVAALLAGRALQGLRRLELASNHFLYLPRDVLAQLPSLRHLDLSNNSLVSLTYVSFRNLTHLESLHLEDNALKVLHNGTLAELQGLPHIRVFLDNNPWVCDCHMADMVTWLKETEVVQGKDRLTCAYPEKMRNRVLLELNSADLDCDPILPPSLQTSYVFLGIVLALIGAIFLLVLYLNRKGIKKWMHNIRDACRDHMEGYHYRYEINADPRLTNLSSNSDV
Kind of assay: flow cytometry on JIMT-1 (5T4 hi) cells, anti-hFc APC MFI. (Flow cytometry measures light scatter and fluorescence of single cells or particles in a stream.)

The target in assay [2] is T1, 5T4 on the surface of target cells …. As to the kind of experiment: flow cytometry on SKOV-3 (5T4 lo) cells, anti-hFc APC MFI.
Assay [3] deals with T2, CD137 on the surface of cells (activated human T cells; engineered CHO cells) (human, UniProt Q07011 24-255).
T2 construct: whole, on cells; also called human CD137; cell surface expressed CD137
As to the kind of experiment: flow cytometry on activated CD8+ T cells (donor D59788, CD8 FITC), anti-hFc APC MFI.

T2 sequence (Q07011 24-255, change not shown): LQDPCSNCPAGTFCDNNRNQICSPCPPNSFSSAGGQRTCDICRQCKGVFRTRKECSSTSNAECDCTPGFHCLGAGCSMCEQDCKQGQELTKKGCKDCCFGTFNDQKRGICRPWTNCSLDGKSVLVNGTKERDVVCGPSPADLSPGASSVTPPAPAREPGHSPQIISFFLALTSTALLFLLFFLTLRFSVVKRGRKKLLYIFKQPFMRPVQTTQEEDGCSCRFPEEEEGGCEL

B1: TRIDENT-B2 (bispecific antibody, human IgG1, kappa, L234A L235A)
chain 1: DIQMTQSPSSLSASVGDRVTITCRPSQDISNYLNWYQQKPDKTVKLLIYYTSRLRSGVPSRFSGSGSGTDFTFTISSLQPEDIATYFCQQGDTLPYTFGQGTKLEIKGGGSGGGGQVQLVQSGAEVKKPGASVKVSCKASGYTFTSYWINWVKQAPGQGLEWIGNIYPSDSYTNYNQKFKDKATITADKSTSTAYMELSSLRSEDTAVYYCTRDYGSAYSMSTWGQGTTVTVSSASTKGEVAACEKEVAALEKEVAALEKEVAALEKGGGDKTHTCPPCPAPEAAGGPSVFLFPPKPKDTLMISRTPEVTCVVVDVSHEDPEVKFNWYVDGVEVHNAKTKPREEQYNSTYRVVSVLTVLHQDWLNGKEYKCKVSNKALPAPIEKTISKAKGQPREPQVYTLPPSREEMTKNQVSLWCLVKGFYPSDIAVEWESNGQPENNYKTTPPVLDSDGSFFLYSKLTVDKSRWQQGNVFSCSVMHEALHNHYTQKSLSLSPGK
chain 2: DIQMTQSPSSLSASVGDRVTITCRPSQDISNYLNWYQQKPDKTVKLLIYYTSRLRSGVPSRFSGSGSGTDFTFTISSLQPEDIATYFCQQGDTLPYTFGQGTKLEIKGGGSGGGGQVQLVQSGAEVKKPGASVKVSCKASGYTFTSYWINWVKQAPGQGLEWIGNIYPSDSYTNYNQKFKDKATITADKSTSTAYMELSSLRSEDTAVYYCTRDYGSAYSMSTWGQGTTVTVSSASTKGKVAACKEKVAALKEKVAALKEKVAALKE
heavy: QVQLVQSGAEVKKPGASVKVSCKASGYTFTSFWMHWVRQAPGQGLEWMGRIDPNRGGTEYNEKAKSRVTMTADKSTSTAYMELSSLRSEDTAVYYCAGGNPYYPMDYWGQGTTVTVSSASTKGPSVFPLAPSSKSTSGGTAALGCLVKDYFPEPVTVSWNSGALTSGVHTFPAVLQSSGLYSLSSVVTVPSSSLGTQTYICNVNHKPSNTKVDKRVEPKSCDKTHTCPPCPAPEAAGGPSVFLFPPKPKDTLMISRTPEVTCVVVDVSHEDPEVKFNWYVDGVEVHNAKTKPREEQYNSTYRVVSVLTVLHQDWLNGKEYKCKVSNKALPAPIEKTISKAKGQPREPQVYTLPPSREEMTKNQVSLSCAVKGFYPSDIAVEWESNGQPENNYKTTPPVLDSDGSFFLVSKLTVDKSRWQQGNVFSCSVMHEALHNRYTQKSLSLSPGK
light: DIQMTQSPSSLSASVGDRVTITCRASQGISNYLAWFQQKPGKAPKSLIYRANRLQSGVPSRFSGSGSGTDFTLTISSLQPEDVATYYCLQYDDFPWTFGQGTKLEIKRTVAAPSVFIFPPSDEQLKSGTASVVCLLNNFYPREAKVQWKVDNALQSGNSQESVTEQDSKDSTYSLSSTLTLSKADYEKHKVYACEVTHQGLSSPVTKSFNRGEC
What is called EC50 (read off the curve) is the concentration that produces a half-maximal response. Lower therefore signals a more potent agent. With B1, the “EC50 (read off the curve)” value was roughly 0.08 µg/mL in assay [1], roughly 0.04 µg/mL in assay [2] and roughly 0.007 µg/mL in assay [3].

B2: TRIDENT-3 (other)
chain 1: DIQMTQSPSTLSASVGDRVTITCRASQSVGYMHWYQQKPGKAPKLLIYDTSKLASGVPSRFSGSGSGTEFTLTISSLQPDDFATYYCFQGSGYPFTFGGGTKLEIKGGGSGGGGEVKLDETGGGLVQPGRPMKLSCVASGFTFSDYWMNWVRQSPEKGLEWVAQIRNKPYNYETYYSDSVKGRFTISRDDSKSSVYLQMNNLRVEDMGIYYCTGSYYGMDYWGQGTSVTVSSASTKGEVAACEKEVAALEKEVAALEKEVAALEKGGGDKTHTCPPCPAPEAAGGPSVFLFPPKPKDTLMISRTPEVTCVVVDVSHEDPEVKFNWYVDGVEVHNAKTKPREEQYNSTYRVVSVLTVLHQDWLNGKEYKCKVSNKALPAPIEKTISKAKGQPREPQVYTLPPSREEMTKNQVSLWCLVKGFYPSDIAVEWESNGQPENNYKTTPPVLDSDGSFFLYSKLTVDKSRWQQGNVFSCSVMHEALHNHYTQKSLSLSPGK
chain 2: DVVMTQTPFSLPVSLGDQASISCRSSQSLVHSNGNTYLRWYLQKPGQSPKVLIYKVSNRFSGVPDRFSGSGSGTDFTLKISRVEAEDLGVYFCSQSTHVPWTFGGGTKLEIKGGGSGGGGQVTLRESGPALVKPTQTLTLTCTFSGFSLSTSGMSVGWIRQPPGKALEWLADIWWDDKKDYNPSLKSRLTISKDTSKNQVVLKVTNMDPADTATYYCARSMITNWYFDVWGAGTTVTVSSASTKGKVAACKEKVAALKEKVAALKEKVAALKE
heavy: QVQLVQSGAEVKKPGASVKVSCKASGYTFTSFWMHWVRQAPGQGLEWMGRIDPNRGGTEYNEKAKSRVTMTADKSTSTAYMELSSLRSEDTAVYYCAGGNPYYPMDYWGQGTTVTVSSASTKGPSVFPLAPSSKSTSGGTAALGCLVKDYFPEPVTVSWNSGALTSGVHTFPAVLQSSGLYSLSSVVTVPSSSLGTQTYICNVNHKPSNTKVDKRVEPKSCDKTHTCPPCPAPEAAGGPSVFLFPPKPKDTLMISRTPEVTCVVVDVSHEDPEVKFNWYVDGVEVHNAKTKPREEQYNSTYRVVSVLTVLHQDWLNGKEYKCKVSNKALPAPIEKTISKAKGQPREPQVYTLPPSREEMTKNQVSLSCAVKGFYPSDIAVEWESNGQPENNYKTTPPVLDSDGSFFLVSKLTVDKSRWQQGNVFSCSVMHEALHNRYTQKSLSLSPGK
light: DIQMTQSPSSLSASVGDRVTITCRASQGISNYLAWFQQKPGKAPKSLIYRANRLQSGVPSRFSGSGSGTDFTLTISSLQPEDVATYYCLQYDDFPWTFGQGTKLEIKRTVAAPSVFIFPPSDEQLKSGTASVVCLLNNFYPREAKVQWKVDNALQSGNSQESVTEQDSKDSTYSLSSTLTLSKADYEKHKVYACEVTHQGLSSPVTKSFNRGEC
In the case of B2, the “EC50 (read off the curve)” value is roughly 0.08 µg/mL in assay [1] and roughly 0.04 µg/mL in assay [2].

B3: TRIDENT-B5 (bispecific antibody, human IgG1, kappa, L234A L235A)
chain 1: DIQMTQSPSSLSASVGDRVTITCQASQDISNYLNWYQQKPDKTVKLLIYYTGRARSGVPSRFSGSGSGTDFTFTISSLQPEDIATYFCQQGDTLPYTFGQGTKLEIKGGGSGGGGQVQLVQSGAEVKKPGASVKVSCKASGYTFTSYWINWVRQAPGQGLEWIGNIYPSDSYTNYNQKFKDKATITADKSTSTAYMELSSLRSEDTAVYYCTRDYGSAYSMSTWGQGTTVTVSSASTKGEVAACEKEVAALEKEVAALEKEVAALEKGGGDKTHTCPPCPAPEAAGGPSVFLFPPKPKDTLMISRTPEVTCVVVDVSHEDPEVKFNWYVDGVEVHNAKTKPREEQYNSTYRVVSVLTVLHQDWLNGKEYKCKVSNKALPAPIEKTISKAKGQPREPQVYTLPPSREEMTKNQVSLWCLVKGFYPSDIAVEWESNGQPENNYKTTPPVLDSDGSFFLYSKLTVDKSRWQQGNVFSCSVMHEALHNHYTQKSLSLSPGK
chain 2: DIQMTQSPSSLSASVGDRVTITCQASQDISNYLNWYQQKPDKTVKLLIYYTGRARSGVPSRFSGSGSGTDFTFTISSLQPEDIATYFCQQGDTLPYTFGQGTKLEIKGGGSGGGGQVQLVQSGAEVKKPGASVKVSCKASGYTFTSYWINWVRQAPGQGLEWIGNIYPSDSYTNYNQKFKDKATITADKSTSTAYMELSSLRSEDTAVYYCTRDYGSAYSMSTWGQGTTVTVSSASTKGKVAACKEKVAALKEKVAALKEKVAALKE
heavy: QVQLVQSGAEVKKPGASVKVSCKASGYTFTSFWMHWVRQAPGQGLEWMGRIDPNRGGTEYNEKAKSRVTMTADKSTSTAYMELSSLRSEDTAVYYCAGGNPYYPMDYWGQGTTVTVSSASTKGPSVFPLAPSSKSTSGGTAALGCLVKDYFPEPVTVSWNSGALTSGVHTFPAVLQSSGLYSLSSVVTVPSSSLGTQTYICNVNHKPSNTKVDKRVEPKSCDKTHTCPPCPAPEAAGGPSVFLFPPKPKDTLMISRTPEVTCVVVDVSHEDPEVKFNWYVDGVEVHNAKTKPREEQYNSTYRVVSVLTVLHQDWLNGKEYKCKVSNKALPAPIEKTISKAKGQPREPQVYTLPPSREEMTKNQVSLSCAVKGFYPSDIAVEWESNGQPENNYKTTPPVLDSDGSFFLVSKLTVDKSRWQQGNVFSCSVMHEALHNRYTQKSLSLSPGK
light: DIQMTQSPSSLSASVGDRVTITCRASQGISNYLAWFQQKPGKAPKSLIYRANRLQSGVPSRFSGSGSGTDFTLTISSLQPEDVATYYCLQYDDFPWTFGQGTKLEIKRTVAAPSVFIFPPSDEQLKSGTASVVCLLNNFYPREAKVQWKVDNALQSGNSQESVTEQDSKDSTYSLSSTLTLSKADYEKHKVYACEVTHQGLSSPVTKSFNRGEC
notes: also called TRIDENT-BS
In the case of B3, the concentration giving a half-maximal response (EC50 (read off the curve)) was roughly 0.08 µg/mL in assay [1], roughly 0.04 µg/mL in assay [2] and roughly 0.007 µg/mL in assay [3].
